Assay results as given in patent publication US20140213513A1 (Sanofi, priority 2012, published 2014).
*1 amine or outer side, *2 acyl side, *3 side chain or, on linkers, in order; H or OH if unused. Where no end group is shown, it is not given here. Side-chain parts run from the residue outwards. [ ]: non-standard residue; d: D form. The star is where a group is joined. γGlu = O=C(O)[C@H](CCC(=O)[*:2])N[*:1]; Palmitoyl = CCCCCCCCCCCCCCCC(=O)*; Aib = CC(C)(N)C(=O)O

T1: human GIP receptor (human, UniProt P48546 22-466)
T1 sequence (looked up): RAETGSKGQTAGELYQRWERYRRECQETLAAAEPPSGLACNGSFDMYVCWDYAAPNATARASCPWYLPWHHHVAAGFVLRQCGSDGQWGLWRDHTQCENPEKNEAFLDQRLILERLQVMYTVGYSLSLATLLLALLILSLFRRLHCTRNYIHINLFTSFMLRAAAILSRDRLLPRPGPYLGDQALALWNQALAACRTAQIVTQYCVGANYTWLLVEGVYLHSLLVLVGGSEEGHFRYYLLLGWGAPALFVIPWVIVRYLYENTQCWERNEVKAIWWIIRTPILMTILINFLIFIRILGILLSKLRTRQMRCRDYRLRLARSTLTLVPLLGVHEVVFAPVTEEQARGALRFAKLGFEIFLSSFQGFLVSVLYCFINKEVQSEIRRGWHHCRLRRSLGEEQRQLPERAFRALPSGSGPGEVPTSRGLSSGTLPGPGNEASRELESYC


Legend:
Assay in all cases: cell-based or functional assay
human GIP receptor = biological target: T1, human GIP receptor
human GLP-1 receptor = human GLP-1 receptor (human, UniProt P43220 24-463)
human glucagon receptor = human glucagon receptor (human, UniProt P47871 26-477)
Chain of human glucagon receptor (P47871 26-477): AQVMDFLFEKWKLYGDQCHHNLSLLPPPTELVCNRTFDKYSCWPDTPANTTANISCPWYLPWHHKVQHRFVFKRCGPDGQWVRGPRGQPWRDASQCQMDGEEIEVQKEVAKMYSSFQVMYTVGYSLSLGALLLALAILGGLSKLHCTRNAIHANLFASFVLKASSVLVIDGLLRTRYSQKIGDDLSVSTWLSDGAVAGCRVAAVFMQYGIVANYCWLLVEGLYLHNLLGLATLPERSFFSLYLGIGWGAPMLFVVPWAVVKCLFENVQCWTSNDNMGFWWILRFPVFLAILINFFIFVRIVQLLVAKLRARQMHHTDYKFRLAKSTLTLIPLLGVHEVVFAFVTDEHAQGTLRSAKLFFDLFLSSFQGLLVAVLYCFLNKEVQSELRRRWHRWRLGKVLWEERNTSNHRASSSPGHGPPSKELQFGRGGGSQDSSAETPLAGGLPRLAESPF

Binder	EC50 hGIP R (human GIP receptor) [nM]	EC50 hGLP-1 R (human GLP-1 receptor) [nM]	EC50 hGLUC R (human glucagon receptor) [nM]
Y[Aib]EGTFTSDLSIQK([γGlu-Palmitoyl])DKRAAQLFIEWLKNGGPSSGAPPPS-NH2 (N-terminus assumed; SMILES CCCCCCCCCCCCCCCC(=O)N[C@@H](CCC(=O)NCCCC[C@H](NC(=O)[C@H](CCC(N)=O)NC(=O)[C@@H](NC(=O)[C@H](CO)NC(=O)[C@H](CC(C)C)NC(=O)[C@H](CC(=O)O)NC(=O)[C@H](CO)NC(=O)[C@@H](NC(=O)[C@H](Cc1ccccc1)NC(=O)[C@@H](NC(=O)CNC(=O)[C@H](CCC(=O)O)NC(=O)C(C)(C)NC(=O)[C@@H](N)Cc1ccc(O)cc1)[C@@H](C)O)[C@@H](C)O)[C@@H](C)CC)C(=O)N[C@@H](CC(=O)O)C(=O)N[C@@H](CCCCN)C(=O)N[C@@H](CCCNC(=N)N)C(=O)N[C@@H](C)C(=O)N[C@@H](C)C(=O)N[C@@H](CCC(N)=O)C(=O)N[C@@H](CC(C)C)C(=O)N[C@@H](Cc1ccccc1)C(=O)N[C@H](C(=O)N[C@@H](CCC(=O)O)C(=O)N[C@@H](Cc1c[nH]c2ccccc12)C(=O)N[C@@H](CC(C)C)C(=O)N[C@@H](CCCCN)C(=O)N[C@@H](CC(N)=O)C(=O)NCC(=O)NCC(=O)N1CCC[C@H]1C(=O)N[C@@H](CO)C(=O)N[C@@H](CO)C(=O)NCC(=O)N[C@@H](C)C(=O)N1CCC[C@H]1C(=O)N1CCC[C@H]1C(=O)N1CCC[C@H]1C(=O)N[C@@H](CO)C(N)=O)[C@@H](C)CC)C(=O)O) [exendin-4 peptide analogue SEQ ID NO: 55]	0.0156	0.0161	18.3
Y[Aib]EGTFTSDLSIQK([γGlu-Palmitoyl])DKRKAQDFIEWLKNGGPSSGAPPPS-NH2 (N-terminus assumed; SMILES CCCCCCCCCCCCCCCC(=O)N[C@@H](CCC(=O)NCCCC[C@H](NC(=O)[C@H](CCC(N)=O)NC(=O)[C@@H](NC(=O)[C@H](CO)NC(=O)[C@H](CC(C)C)NC(=O)[C@H](CC(=O)O)NC(=O)[C@H](CO)NC(=O)[C@@H](NC(=O)[C@H](Cc1ccccc1)NC(=O)[C@@H](NC(=O)CNC(=O)[C@H](CCC(=O)O)NC(=O)C(C)(C)NC(=O)[C@@H](N)Cc1ccc(O)cc1)[C@@H](C)O)[C@@H](C)O)[C@@H](C)CC)C(=O)N[C@@H](CC(=O)O)C(=O)N[C@@H](CCCCN)C(=O)N[C@@H](CCCNC(=N)N)C(=O)N[C@@H](CCCCN)C(=O)N[C@@H](C)C(=O)N[C@@H](CCC(N)=O)C(=O)N[C@@H](CC(=O)O)C(=O)N[C@@H](Cc1ccccc1)C(=O)N[C@H](C(=O)N[C@@H](CCC(=O)O)C(=O)N[C@@H](Cc1c[nH]c2ccccc12)C(=O)N[C@@H](CC(C)C)C(=O)N[C@@H](CCCCN)C(=O)N[C@@H](CC(N)=O)C(=O)NCC(=O)NCC(=O)N1CCC[C@H]1C(=O)N[C@@H](CO)C(=O)N[C@@H](CO)C(=O)NCC(=O)N[C@@H](C)C(=O)N1CCC[C@H]1C(=O)N1CCC[C@H]1C(=O)N1CCC[C@H]1C(=O)N[C@@H](CO)C(N)=O)[C@@H](C)CC)C(=O)O) [exendin-4 peptide analogue SEQ ID NO: 54]	0.105	0.0668	2.62
Y[Aib]QGTFTSDLSIQK([γGlu-Palmitoyl])DSRRAQDFIEWLKAGGPSSGAPPPS-NH2 (N-terminus assumed; SMILES CCCCCCCCCCCCCCCC(=O)N[C@@H](CCC(=O)NCCCC[C@H](NC(=O)[C@H](CCC(N)=O)NC(=O)[C@@H](NC(=O)[C@H](CO)NC(=O)[C@H](CC(C)C)NC(=O)[C@H](CC(=O)O)NC(=O)[C@H](CO)NC(=O)[C@@H](NC(=O)[C@H](Cc1ccccc1)NC(=O)[C@@H](NC(=O)CNC(=O)[C@H](CCC(N)=O)NC(=O)C(C)(C)NC(=O)[C@@H](N)Cc1ccc(O)cc1)[C@@H](C)O)[C@@H](C)O)[C@@H](C)CC)C(=O)N[C@@H](CC(=O)O)C(=O)N[C@@H](CO)C(=O)N[C@@H](CCCNC(=N)N)C(=O)N[C@@H](CCCNC(=N)N)C(=O)N[C@@H](C)C(=O)N[C@@H](CCC(N)=O)C(=O)N[C@@H](CC(=O)O)C(=O)N[C@@H](Cc1ccccc1)C(=O)N[C@H](C(=O)N[C@@H](CCC(=O)O)C(=O)N[C@@H](Cc1c[nH]c2ccccc12)C(=O)N[C@@H](CC(C)C)C(=O)N[C@@H](CCCCN)C(=O)N[C@@H](C)C(=O)NCC(=O)NCC(=O)N1CCC[C@H]1C(=O)N[C@@H](CO)C(=O)N[C@@H](CO)C(=O)NCC(=O)N[C@@H](C)C(=O)N1CCC[C@H]1C(=O)N1CCC[C@H]1C(=O)N1CCC[C@H]1C(=O)N[C@@H](CO)C(N)=O)[C@@H](C)CC)C(=O)O) [exendin-4 peptide analogue SEQ ID NO: 52]	0.182	0.0256	0.0133
Y[Aib]QGTFTSDLSKQK([γGlu-Palmitoyl])DSRAARDFIEWLKAGGPSSGAPPPS-NH2 (N-terminus assumed; SMILES CCCCCCCCCCCCCCCC(=O)N[C@@H](CCC(=O)NCCCC[C@H](NC(=O)[C@H](CCC(N)=O)NC(=O)[C@H](CCCCN)NC(=O)[C@H](CO)NC(=O)[C@H](CC(C)C)NC(=O)[C@H](CC(=O)O)NC(=O)[C@H](CO)NC(=O)[C@@H](NC(=O)[C@H](Cc1ccccc1)NC(=O)[C@@H](NC(=O)CNC(=O)[C@H](CCC(N)=O)NC(=O)C(C)(C)NC(=O)[C@@H](N)Cc1ccc(O)cc1)[C@@H](C)O)[C@@H](C)O)C(=O)N[C@@H](CC(=O)O)C(=O)N[C@@H](CO)C(=O)N[C@@H](CCCNC(=N)N)C(=O)N[C@@H](C)C(=O)N[C@@H](C)C(=O)N[C@@H](CCCNC(=N)N)C(=O)N[C@@H](CC(=O)O)C(=O)N[C@@H](Cc1ccccc1)C(=O)N[C@H](C(=O)N[C@@H](CCC(=O)O)C(=O)N[C@@H](Cc1c[nH]c2ccccc12)C(=O)N[C@@H](CC(C)C)C(=O)N[C@@H](CCCCN)C(=O)N[C@@H](C)C(=O)NCC(=O)NCC(=O)N1CCC[C@H]1C(=O)N[C@@H](CO)C(=O)N[C@@H](CO)C(=O)NCC(=O)N[C@@H](C)C(=O)N1CCC[C@H]1C(=O)N1CCC[C@H]1C(=O)N1CCC[C@H]1C(=O)N[C@@H](CO)C(N)=O)[C@@H](C)CC)C(=O)O) [exendin-4 peptide analogue SEQ ID NO: 56]	0.162	0.0046	0.0199
Y[Aib]QGTFTSDLSIQK([γGlu-Palmitoyl])DKRRAQDFIEWLKAGGPSSGAPPPS-NH2 (N-terminus assumed; SMILES CCCCCCCCCCCCCCCC(=O)N[C@@H](CCC(=O)NCCCC[C@H](NC(=O)[C@H](CCC(N)=O)NC(=O)[C@@H](NC(=O)[C@H](CO)NC(=O)[C@H](CC(C)C)NC(=O)[C@H](CC(=O)O)NC(=O)[C@H](CO)NC(=O)[C@@H](NC(=O)[C@H](Cc1ccccc1)NC(=O)[C@@H](NC(=O)CNC(=O)[C@H](CCC(N)=O)NC(=O)C(C)(C)NC(=O)[C@@H](N)Cc1ccc(O)cc1)[C@@H](C)O)[C@@H](C)O)[C@@H](C)CC)C(=O)N[C@@H](CC(=O)O)C(=O)N[C@@H](CCCCN)C(=O)N[C@@H](CCCNC(=N)N)C(=O)N[C@@H](CCCNC(=N)N)C(=O)N[C@@H](C)C(=O)N[C@@H](CCC(N)=O)C(=O)N[C@@H](CC(=O)O)C(=O)N[C@@H](Cc1ccccc1)C(=O)N[C@H](C(=O)N[C@@H](CCC(=O)O)C(=O)N[C@@H](Cc1c[nH]c2ccccc12)C(=O)N[C@@H](CC(C)C)C(=O)N[C@@H](CCCCN)C(=O)N[C@@H](C)C(=O)NCC(=O)NCC(=O)N1CCC[C@H]1C(=O)N[C@@H](CO)C(=O)N[C@@H](CO)C(=O)NCC(=O)N[C@@H](C)C(=O)N1CCC[C@H]1C(=O)N1CCC[C@H]1C(=O)N1CCC[C@H]1C(=O)N[C@@H](CO)C(N)=O)[C@@H](C)CC)C(=O)O) [exendin-4 peptide analogue SEQ ID NO: 53]	0.0932	0.0136	0.0079
